According to patent US20230357415A1 (AJOU UNIVERSITY INDUSTRY ACADEMIC COOPERATION FOUNDATION, published 2023):
Positions count from the first letter of the chain named. Each block holds one binder with its values, some of them ahead of it.

What was measured:
[1] = molecular target: T1, purified sIL-5Rα (Asp1-Asn313 of SEQ ID NO: 66) (Homo sapiens (Human), UniProt Q01344 21-333); experiment: BLI (Octet QKe), antibody on AHC sensor, purified sIL-5Rα in solution, 1:1 model
T1 construct: also called the purified sIL-5Rα
T1 sequence: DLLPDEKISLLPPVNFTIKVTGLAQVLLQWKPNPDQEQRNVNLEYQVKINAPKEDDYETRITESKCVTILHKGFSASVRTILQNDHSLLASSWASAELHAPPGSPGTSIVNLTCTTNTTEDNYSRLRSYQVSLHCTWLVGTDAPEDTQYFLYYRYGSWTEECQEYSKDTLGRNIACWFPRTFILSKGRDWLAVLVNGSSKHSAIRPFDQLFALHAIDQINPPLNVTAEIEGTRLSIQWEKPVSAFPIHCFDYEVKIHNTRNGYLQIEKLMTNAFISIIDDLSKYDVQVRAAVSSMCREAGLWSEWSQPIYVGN
Method: Specifically, lx kinetic buffer was prepared by diluting 10× kinetic buffer (ForteBio, 18-1105) in PBS. […] Affinity was calculated with Octet Data Analysis software 11.0 in a 1:1 binding model.

insulin = molecular target: T2, insulin (Homo sapiens (Human), UniProt P01308 25-54; P01308 90-110, Mature two-chain hormone: A and B chains joined by two interchain disulfides, plus one intrachain disulfide in the A chain; the letters do not carry these.); experiment: indirect ELISA; plate-coated insulin, antibody 100 nM, anti-human Fc-HRP, absorbance at 450 nm
T2 construct: Irrelevant antigen of the multi-antigen specificity ELISA; also called insulin (125 ng/well, 19278; Sigma)
Method: (§1) The binding specificity of anti-IL-5Rα humanized antibodies was determined using indirect ELISA. A multi-antigen ELISA was performed using four structurally different antigenic double-stranded DNA (dsDNA), insulin, the macromolecule hemocyanin, and the membrane component, cardiolipin. Specifically, sIL-4Rα antigen protein (50 ng/well, Sinobio; 10402-H08H), sIL-5Rα antigen protein (50 ng/well, Sinobio; 10392-H08H), dsDNA (25 ng/well, D4522; Sigma), insulin (125 ng/well, 19278; Sigma), hemocyanin (125 ng/well, H8283; Sigma), and cardiolipin (1250 ng/well, C0563; Sigma) proteins were immobilized on a 96-well plate at room temperature for 1 hour, and blocked using 2% skim milk containing 0.1% PBST (0.1% Tween20, pH 7.4, 137 mM NaCl, 10 mM phosphate, 2.7 mM KCl) at room temperature for 1 hour. After discarding the solution and then washing the same three times with 0.1% PBST, the antibody was diluted to 100 nM, added to the blocked plate in an amount of […], and allowed to react at room temperature for 1 hour. […] After discarding the solution and washing three times with PBST, a TMB solution was added in an amount of […], color development was induced at room temperature for 2 minutes, the reaction was stopped using H₂SO₄ (2N), and the absorbance at 450 nm was measured with an ELISA reader.

[2] = molecular target: T3, sIL-4Rα (soluble IL-4Rα) antigen protein (human, UniProt P24394 26-232); experiment: indirect ELISA; plate-coated sIL-4Rα, antibody 100 nM, anti-human Fc-HRP, absorbance at 450 nm
T3 construct: The ELISA and Octet assays used the bought protein (Sinobio 10402-H08H); also called CD124; sinobio 10402-H08H
Method: as §1

[3] = molecular target: T4, sIL-5Rα antigen protein (Sinobio 10392-H08H) (Homo sapiens (Human), UniProt Q01344 21-342); experiment: indirect ELISA; plate-coated sIL-5Rα, antibody 100, 10, 1 nM, anti-human Fc-HRP, absorbance at 450 nm
T4 construct: Bought protein immobilised in the indirect ELISAs; also called soluble IL-5Rα; CD125
T4 sequence: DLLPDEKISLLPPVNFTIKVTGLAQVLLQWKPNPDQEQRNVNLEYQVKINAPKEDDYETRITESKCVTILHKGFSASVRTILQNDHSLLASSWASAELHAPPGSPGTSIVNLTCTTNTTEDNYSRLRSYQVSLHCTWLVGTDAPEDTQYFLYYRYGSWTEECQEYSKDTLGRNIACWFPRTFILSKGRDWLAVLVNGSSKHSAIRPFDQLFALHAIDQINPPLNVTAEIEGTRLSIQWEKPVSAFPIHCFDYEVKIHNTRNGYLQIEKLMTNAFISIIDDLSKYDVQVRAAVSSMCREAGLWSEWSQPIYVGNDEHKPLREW
Method: After discarding the solution and washing the same three times with 0.1% PBST, an anti-human Fc-HRP antibody (1:8000) as a secondary antibody was added in an amount of 25 μl/well and reacted at room temperature for 1 hour.

T2 sequence (P01308 25-54 limits assumed, chain 1 of 2): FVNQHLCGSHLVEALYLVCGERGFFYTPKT
T2 sequence (P01308 90-110 limits assumed, chain 2 of 2): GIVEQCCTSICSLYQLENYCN

- Kd [1]: 6.13 nM
- koff [1]: 0.000171 s⁻¹
- kon [1]: 28000 M⁻¹ s⁻¹
- binding result (insulin): no binding (tested: 100 nM)
- binding result [2]: no binding (tested: 100 nM)
B1: 5R65.39 (antibody, IgG1, V domains shown)
VH: QVQLVQSGAEVKKPGSSVKVSCKASGYTFTSYWINWVRQAPGQGLEWIGHIYPNKNENYYNHKFKDKATLTVDKSTNTAYMELSSLRSEDTAVYYCTREFYGRSRYSAMDYWGQGTTLTVSS
VL: DIQMTQSPSTLSASVGDRVTITCKASQNVGTAVAWYQQKPGKAPKLLIYWASTRHTGVPDRFSGSGSGTDFTLTISSLQPDDFATYYCQQFGRYPYTFGSGTKVEVK
notes: IgG1

- Kd [1]: 7.26 nM
- koff [1]: 0.000181 s⁻¹
- kon [1]: 24900 M⁻¹ s⁻¹
- binding result (insulin): no binding (tested: 100 nM)
- binding result [2]: no binding (tested: 100 nM)
B2: 5R65.45 (antibody, IgG1, V domains shown)
VH: B1 VH with F100Y, R105Y, S107N
VL: B1 VL
notes: IgG1

- binding result [3]: binds
B3: 4R34.1.19-SL-5R65 (bispecific antibody, human IgG1, kappa)
light: QSVLTQPPSASGTPGQRVTISCSGSPLFPDSGSFNWYQQLPGTAPKLLIYADSHRPSGVPDRFSGSKSGTSASLAISGLRSEDEADYYCGTWDYSLSGYVLGGGTKLTVLGTVAAPDIQMTQSPSTLSASVGDRVTITCKASQNVGTAVAWYQQKPGKAPKLLIYWASTRHTGVPDRFSGSGSGTDFTLTISSLQPDDFATYYCQQFGRYPYTFGSGTKVEVKRTVAAPSVFIFPPSDEQLKSGTASVVCLLNNFYPREAKVQWKVDNALQSGNSQESVTEQDSKDSTYSLSSTLTLSKADYEKHKVYACEVTHQGLSSPVTKSFNRGEC
heavy: not shown
notes: The 4R34.1.19 variable regions are outermost and the 5R65 variable regions come second; also called 4R-SL-5R; DVD-IgG
